Assay results reported in patent publication US20240279325A1 (Chugai, published 2024).
Each block holds one binder with its values, some of them ahead of it.

Tests used:
[1] = molecular target: T1, FcγRIIb extracellular region (human, UniProt P31994 43-217); assay: SPR (Biacore), ratio of KD values
T1 construct: extracellular domain; for crystals expressed with kifunensine and trimmed with Endo F1; also called human FcγRIIb
T1 sequence (looked up): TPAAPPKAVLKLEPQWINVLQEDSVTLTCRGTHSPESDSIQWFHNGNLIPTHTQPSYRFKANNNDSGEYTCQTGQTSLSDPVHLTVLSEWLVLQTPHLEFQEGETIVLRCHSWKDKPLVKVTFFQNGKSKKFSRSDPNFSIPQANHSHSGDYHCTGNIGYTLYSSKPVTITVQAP

[2] = molecular target: T2, FcγRIIaR extracellular region (human, UniProt P12318 34-217); assay: SPR (Biacore), ratio of KD values
T2 construct: extracellular domain; also called FcγRIIa type R; FcγRIIa allotype R131
T2 sequence (looked up): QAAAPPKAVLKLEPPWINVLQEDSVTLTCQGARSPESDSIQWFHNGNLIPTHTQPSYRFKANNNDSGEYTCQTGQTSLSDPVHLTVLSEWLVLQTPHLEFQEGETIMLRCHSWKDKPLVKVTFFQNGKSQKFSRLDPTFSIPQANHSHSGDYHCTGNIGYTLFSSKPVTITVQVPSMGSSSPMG

[3] = molecular target: T3, human FcRn (human, UniProt P55899 24-290; P61769 21-119, limits assumed); assay: SPR (Biacore), pH 7.0
T3 construct: also called hFcRn
Experimental: The binding between the antibody and human FcRn under a neutral condition (pH 7.0) was analyzed with a BIACORE™ system.

[4] = molecular target: T4, mouse FcγRIV (mouse, UniProt A0A0B4J1G0 21-203); assay: SPR (Biacore)
T4 construct: also called mFcγRIV; not shown: purification tag of the soluble receptor (probably a His tag)
T4 sequence: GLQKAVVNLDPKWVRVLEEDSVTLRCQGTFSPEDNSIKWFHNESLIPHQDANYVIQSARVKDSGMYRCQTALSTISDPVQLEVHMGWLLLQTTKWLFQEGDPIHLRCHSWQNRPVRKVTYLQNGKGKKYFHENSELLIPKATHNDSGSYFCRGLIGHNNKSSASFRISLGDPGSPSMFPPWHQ

[5] = molecular target: T5, mouse FcγRI (mouse, UniProt P26151 25-297); assay: SPR (Biacore)
T5 construct: also called mFcγRI
T5 sequence (looked up): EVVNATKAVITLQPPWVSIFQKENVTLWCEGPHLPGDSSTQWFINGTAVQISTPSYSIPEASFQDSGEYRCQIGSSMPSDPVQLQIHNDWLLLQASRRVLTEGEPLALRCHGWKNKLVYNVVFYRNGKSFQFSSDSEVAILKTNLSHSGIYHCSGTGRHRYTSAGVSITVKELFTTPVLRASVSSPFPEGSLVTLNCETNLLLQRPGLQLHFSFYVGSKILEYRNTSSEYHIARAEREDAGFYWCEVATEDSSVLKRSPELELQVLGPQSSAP

- fold binding relative to IL6R-BP230/IL6R-L [1]: 1.1 times
- fold binding relative to IL6R-BP230/IL6R-L [2]: 0.9 times
B1: IL6R-BP478/IL6R-L (antibody)
heavy: QVQLQESGPGLVKPSETLSLTCAVSGHSISHDHAWSWVRQPPGEGLEWIGFISYSGITNYNPSLQGRVTISRDNSKNTLYLQMNSLRAEDTAVYYCARSLARTTAMDYWGEGTLVTVSSASTKGPSVFPLAPCSRSTSESTAALGCLVKDYFPEPVTVSWNSGALTSGVHTFPAVLQSSGLYSLSSVVTVPSSSLGTKTYTCNVDHKPSNTKVDKRVESKYGPPCPPCPAPDLLGDDSVFLFPPKPKDTLMISRTPEVTCVVVDVSDEDGEVKFNWYVDGVEVHNAKTKPREEQDNSTYRVVSVLTVLHQDWLNGKEYKCKVSNKALPRPIEKTISKAKGQPREPQVYTLPPSRDELTKNQVSLTCLVKGFYPSDIAVEWESNGQPENNYKTTPPVLDSDGSFFLYSKLTVDKSRWQQGNVFSCSVMHEALHNHYTQESLSLSP
light: not shown
notes: copies: 2 + 2

- Kd [3]: 28 nM
B2: F554 (antibody, human IgG1, kappa)
heavy: QVQLQESGPGLVKPSETLSLTCAVSGHSISHDHAWSWVRQPPGEGLEWIGFISYSGITNYNPSLQGRVTISRDNSKNTLYLQMNSLRAEDTAVYYCARSLARTTAMDYWGEGTLVTVSSASTKGPSVFPLAPSSKSTSGGTAALGCLVKDYFPEPVTVSWNSGALTSGVHTFPAVLQSSGLYSLSSVVTVPSSSLGTQTYICNVNHKPSNTKVDKKVEPKSCDKTHTCPPCPAPELLGGPKVFLFPPKPKDTLYITRTPEVTCVVVDVSHEDPEVKFNWYVDGVEVHNAKTKPREEQYNSTYRVVSVLTPLHQDWLNGKEYKCKVSNKALPAPIEKTISKAKGQPREPQVYTLPPSRDELTKNQVSLTCLVKGFYPSDIAVEWESNGQPENNYKTTPPVLDSDGSFFLYSKLTVDKSRWQQGNVFSCSVMHEALHYHYTQKSLSLSP
light: not shown
notes: copies: 2 + 2

- binding result [4]: no binding
- binding result [5]: no binding
B3: VH3/L (WT)-mIgG1 (antibody)
heavy: QVQLQESGPGLVKPSETLSLTCAVSGHSISHDHAWSWVRQPPGEGLEWIGFISYSGITNYNPSLQGRVTISRDNSKNTLYLQMNSLRAEDTAVYYCARSLARTTAMDYWGEGTLVTVSSAKTTPPSVYPLAPGSAAQTNSMVTLGCLVKGYFPEPVTVTWNSGSLSSGVHTFPAVLQSDLYTLSSSVTVPSSTWPSETVTCNVAHPASSTKVDKKIVPRDCGCKPCICTVPEVSSVFIFPPKPKDVLTITLTPKVTCVVVDISKDDPEVQFSWFVDDVEVHTAQTQPREEQFNSTFRSVSELPIMHQDWLNGKEFKCRVNSAAFPAPIEKTISKTKGRPKAPQVYTIPPPKEQMAKDKVSLTCMITDFFPEDITVEWQWNGQPAENYKNTQPIMDTDGSYFVYSKLNVQKSNWEAGNTFTCSVLHEGLHNHHTEKSLSHSPGK
light: not shown
notes: copies: 2 + 2
